Measurements reported in patent EP1192182B1, “PITUITARY ADENYLATE CYCLASE ACTIVATING PEPTIDE (PACAP) RECEPTOR 3 (R3) AGONISTS AND THEIR PHARMACOLOGICAL METHODS OF USE” (priority 1999, dated 2001).
Non-standard residues stand in square brackets, D forms with d. No end group written: not given here. Nle = CCCC[C@H](N)C(=O)O

T1: PACAP-R3 (human, UniProt P41587 24-438)
T1 sequence (looked up): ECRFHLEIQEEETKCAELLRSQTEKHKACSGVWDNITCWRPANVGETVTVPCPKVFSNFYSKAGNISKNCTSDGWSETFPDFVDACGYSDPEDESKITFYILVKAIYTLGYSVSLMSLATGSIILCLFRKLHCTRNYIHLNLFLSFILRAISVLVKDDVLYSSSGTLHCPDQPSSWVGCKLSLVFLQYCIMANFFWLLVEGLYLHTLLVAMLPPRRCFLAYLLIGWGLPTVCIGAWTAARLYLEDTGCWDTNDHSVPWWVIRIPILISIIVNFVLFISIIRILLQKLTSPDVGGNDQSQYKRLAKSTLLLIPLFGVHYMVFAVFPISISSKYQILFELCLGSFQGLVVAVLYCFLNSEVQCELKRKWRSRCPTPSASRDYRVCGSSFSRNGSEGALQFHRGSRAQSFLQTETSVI

T2: human PACAP/VIP R2 (PACAP R3) receptor (human, UniProt P41587 24-438)
T2 sequence (looked up): T1 sequence (looked up)


biological target: T1, PACAP-R3; experiment: cell-based or functional assay

Going from HSDAVFTDNYTRLRKQMAVKKYLNSILK [R3P43] to HSDAVFTDNYTRLRKQMAAKKYLNSIKNWR [R3P150], the “R3 Selectivity” value rises from 10 ratio to 50 ratio.

Going from HSDAVFTDNYTRLRKQMAAKKYLNSIKNKD [R3P153] to HSDAVFTDNYTRLRKQMAAKKYLNSIKNKH [R3P158], the “R3 Selectivity” value falls from 200 ratio to 90 ratio.

HSDAVFTDNYTRLRKQLAAKKYLNDIKKNQ [R3P35] and HSDAVFTDNYTRLRKQMAVKKYLNSIKK [R3P41] cannot be ordered by “R3 Selectivity” value: over 40 ratio for the first, 100 ratio for the second.

HSDAVFTDNYTRLRKQMAAKKYLNSIKNTR [R3P148] and HSDAVFTDNYTRLRKQMAAKKYLNSIKNRR [R3P146] are the same in “R3 Selectivity” value: 100 ratio for the first, 100 ratio for the second.

Going from HSDAVFTDNYTRLRKQMAAKKYLNSIKNSR [R3P147] to HSDAVFTDNYTRLRKQMAAKKYLNSIKNKE [R3P155], the “R3 Selectivity” value falls from 500 ratio to 100 ratio.

Going from HSDAVFTDNYTRLRKQLAAKKYLNDIKKKRY [R3P36] to HSDAVFTDNYTRLRKQMAAKKYLNSIKNKG [R3P157], the “R3 Selectivity” value falls from over 200 ratio to 170 ratio.

First: HSDAVFTDNYTRLRKQMAAKKYLNSIKNKI [R3P159]
Second: HSDAVFTDNYTRLRKQMAVKKYLNSIKN [R3P42]
The “R3 Selectivity” value of the first is higher: 400 ratio for the first, 10 ratio for the second.

Compared with HSDAVFTDNYTRLRKQMAAKKYLNSIKNKK [R3P160], HSDAVFTDNYTELRKQMAVKKYLNSILN [R3P44] is lower in “R3 Selectivity” value: 500 ratio for the first, 6 ratio for the second.

Going from HSDAVFTDNYTRLRKQMAAKKYLNSIKNKN [R3P163] to HSDAVFTDNYTRLRKQMAAKKYLNDIKKGGT [R3P20], the “R3 Selectivity” value rises from 200 ratio to 230 ratio.

Going from HSDAVFTDNYTRLRKQLAVKKYLNDIKKGGT [R3P21] to HSDAVFTDNYTRLRKQMAAKKYLNSIKKGGT [R3P26], the “R3 Selectivity” value rises from 60 ratio to over 180 ratio.

Going from HSDAVFTDNYTRLRKQLAAKKYLNDIKNGGT [R3P24] to HSDAVFTDNYTRLRKQLAAKKYLNSIKNGGT [R3P30], the “R3 Selectivity” value rises from 34 ratio to 50 ratio.

Going from HSDAVFTDNYTRLRKQLAVKKYLNSIKKGGT [R3P25] to HSDAVFTDNYTRLRKQLAAKKYLNSIKKGGT [R3P22], the “R3 Selectivity” value rises from 20 ratio to 24 ratio.

First: HSDAVFTDNYTRLRKQLAVKKYLNDIKNGGT [R3P29]
Second: HSDAVFTDNYTRLRKQMAAKKYLNSIKNQR [R3P145]
The “R3 Selectivity” value of the first is higher: over 200 ratio for the first, 100 ratio for the second.

Compared with Ac-HSDAVFTENYTKLRKQ[Nle]AAKKYLNDLKKGGT-NH2 [R3P0], HSDAVFTDNYTRLRKQMAAKKYLNSIKNKF [R3P156] is lower in “R3 Selectivity” value: over 250 ratio for the first, 100 ratio for the second.

Ac-HSDAVFTENYTKLRKQLAAKKYLNDLKKGGT-NH2 [R3P1] and HSDAVFTDNYTRLRKQMAAKKYLNSIKNVR [R3P149] cannot be ordered by “R3 Selectivity” value: over 50 ratio for the first, 80 ratio for the second.

HSDAVFTDNYTRLRKQLAAKKYLNDIKKQ [R3P34] and HSDAVFTDNYTRLRKQLAAKKYLNDIKK [R3P33] cannot be ordered by “R3 Selectivity” value: over 70 ratio for the first, over 200 ratio for the second.

First: HSDAVFTDNYTRLRKQLAAKKYLNDIKKG [R3P32]
Second: HSDAVFTDNYTRLRKQLAAKKYLNDIKKGG [R3P31]
The “R3 Selectivity” value of the first is lower: 200 ratio for the first, over 300 ratio for the second.

With HSDAVFTENYTKLRKQLAAKKYLNDLKKGGTSWCEPGWCR [R3P19] the “R3 Selectivity” value was 30 ratio.

Going from HSDAVFTDNYTRLRKQMAAKKYLNSIKNWR [R3P150] to HSDAVFTDNYTRLRKQMAAKKYLNSIKNKD [R3P153], the “R3 EC50” value falls from 0.8 nM to 0.2 nM (4-fold).

Going from HSDAVFTDNYTRLRKQMAAKKYLNSIKNKH [R3P158] to HSDAVFTDNYTRLRKQMAAKKYLNSIKNKP [R3P164], the “R3 EC50” value rises from 0.07 nM to 0.3 nM (4.3-fold).

HSDAVFTDNYTRLRKQMAAKKYLNSIKNTR [R3P148] and HSDAVFTDNYTRLRKQMAAKKYLNSIKNRR [R3P146] are the same in “R3 EC50” value: 0.3 nM for the first, 0.3 nM for the second.

Going from HSDAVFTDNYTRLRKQMAAKKYLNSIKNSR [R3P147] to HSDAVFTDNYTRLRKQMAAKKYLNSIKNKE [R3P155], the “R3 EC50” value rises from 0.2 nM to 0.4 nM (2-fold).

Going from HSDAVFTDNYTRLRKQMAAKKYLNSIKNKG [R3P157] to HSDAVFTDNYTRLRKQMAAKKYLNSIKNKI [R3P159], the “R3 EC50” value rises from 0.3 nM to 0.5 nM (1.7-fold).

Compared with HSDAVFTDNYTRLRKQMAAKKYLNSIKNKN [R3P163], HSDAVFTDNYTRLRKQMAAKKYLNSIKNQR [R3P145] is 2.5-fold higher in “R3 EC50” value: 0.2 nM for the first, 0.5 nM for the second.

Compared with HSDAVFTDNYTRLRKQMAAKKYLNSIKNKL [R3P161], HSDAVFTDNYTRLRKQMAAKKYLNSIKNKF [R3P156] is 5-fold higher in “R3 EC50” value: 0.2 nM for the first, 1 nM for the second.

In the case of HSDAVFTDNYTRLRKQMAAKKYLNSIKNVR [R3P149], the “R3 EC50” value is reported as 0.5 nM.

biological target: T2, human PACAP/VIP R2 (PACAP R3) receptor; experiment: cell-based or functional assay

Going from HSDAVFTDNYTRLRKQMAAKKYLNSIKNKQ [rR3P165] to HSDAVFTDNYTRLRKQMAAKKYLNSIKNKW [rR3P169], the “R3 EC50, nM (cAMP SPA)” value falls from 0.5 nM to 0.2 nM (2.5-fold).

First: HSDAVFTDNYTRLRKQVAAKKYLQSIKNKRYSWCEPGWCR [rR3P171]
Second: HSDAVFTDNYTRLRKQMAAKKYLNSIKNKT [rR3P167]
The “R3 EC50, nM (cAMP SPA)” value of the first is 2.5-fold lower: 0.4 nM for the first, 1 nM for the second.

Compared with ESDGIFTDSYSRYRKQMAVKKYLAAVL [R3P173], HSDAVFTDDYTRLRKEVAAKKYLESIKDKRY [R3P172] is 77-fold lower in “R3 EC50, nM (cAMP SPA)” value: 200 nM for the first, 2.6 nM for the second.

In the case of HSDAVFTDNYTRLRKQMAAKKYLNSIKNRI-NH2 [PAC27], the “R3 EC50, nM (cAMP SPA)” value is reported as 1.1 nM.

First: HSDAVFTDNYTRLRKQVAAKKYLQSIKNKRYSWCEPGWCR [rR3P171]
Second: HSDAVFTDDYTRLRKEVAAKKYLESIKDKRY [R3P172]
The “R3 Selectivity” value of the first is higher: 200 ratio for the first, 29 ratio for the second.

With HSDAVFTDNYTRLRKQMAAKKYLNSIKNRI-NH2 [PAC27] the “R3 Selectivity” value was 1.4 ratio.
